Laboratory results from publication PMC10933263 (EMBO Reports, 2024).

What was measured:
[1] = biological target: bovine adenylyl cyclase AC8, purified, tag-free (bovine) (UniProt E1BQ12)
[2] = biological target: bovine adenylyl cyclase AC8, purified, tag-free (bovine) (UniProt E1BQ12); remark: listed apart in the source
[3] = biological target: bovine adenylyl cyclase AC8, purified, tag-free (bovine, UniProt E1BQ12 1-1253); test: cell-based or functional assay

## Calmodulin (from bovine testes, Sigma-Aldrich P1431) (from UniProt P62157 1-149) (natural protein)
[1]
  activation of AC8 adenylyl cyclase activity (cAMP accumulation) by CaM in the absence of CaCl2, EC50: 86.6 nM
  activation of AC8 adenylyl cyclase activity (cAMP accumulation) by CaM in the presence of CaCl2, EC50: 4.1 nM

## G protein beta gamma subunit (Gβ1γ2) (from UniProt P62871 1-340; P63212 1-71) (complex)
[2]
  inhibition of AC8 adenylyl cyclase activity (cAMP accumulation) by Gβγ, IC50: 0.4 µM

B1: bovine G protein αs subunit, GTPγS-activated (natural protein, UniProt P04896-1 1-394, looked up)
chain: MGCLGNSKTEDQRNEEKAQREANKKIEKQLQKDKQVYRATHRLLLLGAGESGKSTIVKQMRILHVNGFNGEGGEEDPQAARSNSDGEKATKVQDIKNNLKEAIETIVAAMSNLVPPVELANPENQFRVDYILSVMNVPDFDFPPEFYEHAKALWEDEGVRACYERSNEYQLIDCAQYFLDKIDVIKQDDYVPSDQDLLRCRVLTSGIFETKFQVDKVNFHMFDVGGQRDERRKWIQCFNDVTAIIFVVASSSYNMVIREDNQTNRLQEALNLFKSIWNNRWLRTISVILFLNKQDLLAEKVLAGKSKIEDYFPEFARYTTPEDATPEPGEDPRVTRAKYFIRDEFLRISTASGDGRHYCYPHFTCAVDTENIRRVFNDCRDIIQRMHLRQYELL
[3]
  activation of AC8 adenylyl cyclase activity (cAMP accumulation) by GTPγS-bound Gαs, EC50: 25.5 nM
